Values belong to the molecule of their own block, whether it stands above or below them.
How the values were obtained:
[1] = target: truncated transmembrane tissue factor comprising residues 1-243, relipidated (human) (UniProt P13726); assay: cell-based or functional assay
[2] = target: T1, soluble tissue factor composed of the extracellular domain residues 1-219 of hTF (human, UniProt P13726 33-251); assay: SPR (BIAcore 2000), antibody immobilized, sTF in solution, 1:1 model
T1 construct: Expressed in E. coli; also called sTF
Experimental: The binding affinity of sTF for immobilized antibody was determined by surface plasmon resonance (SPR) measurements on a Pharmacia BIAcore 2000 instrument (Pharmacia Biosensor). Each antibody was coupled to the sensor chip surface at a level of 2000-3000 resonance units using amine coupling chemistry (Pharmacia Biosensor). In a typical experiment, 4 different antibodies were immobilized on each of the 4 flow cells of the sensor chip so that sensorgrams could be recorded simultaneously for all 4 antibodies. […] The kinetic constants were determined by non-linear regression analysis according to a 1:1 binding model using software supplied by the manufacturer. Dissociation constants were calculated from the kinetic constants. […] These solutions were incubated at ambient temperature for 30 minutes prior to injection onto the sensor chip. […] Affinities were determined by SPR measurements as described above for the wild-type protein.

[3] = target: relipidated human tissue factor (Innovin) (human, UniProt P13726 33-295); assay: cell-based or functional assay
[4] = target: tissue factor on human J82 cells (human, UniProt P13726 33-295); assay: cell-based or functional assay

Sequence of truncated transmembrane tissue factor comprising residues 1-243, relipidated (human) (P13726 33-275): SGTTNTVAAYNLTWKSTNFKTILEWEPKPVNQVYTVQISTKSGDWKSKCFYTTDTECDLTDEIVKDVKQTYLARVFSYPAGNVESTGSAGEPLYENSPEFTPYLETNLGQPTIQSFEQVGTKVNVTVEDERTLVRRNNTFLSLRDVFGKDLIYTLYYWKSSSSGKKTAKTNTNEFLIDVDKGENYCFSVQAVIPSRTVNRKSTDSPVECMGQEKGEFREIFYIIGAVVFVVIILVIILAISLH

concentration that inhibited the initial rate of FX activation in human plasma by 50% [1]: 150 µg/mL
Molecule: HTF1 antibody

Kd [2]: 1.7 nM
koff [2]: 0.0005 s⁻¹
kon [2]: 300000 M⁻¹ s⁻¹
antibody concentration that prolonged the clotting time by 1.5-fold (PT assay) [3]: 27 µg/mL
IC50 of FPA generation, human ex-vivo blood flow system [4]: 50 µg/mL
B1: murine anti-TF antibody 5G6 (antibody, V domains shown)
VH: EVLLQQSGPELVKPGASVKIPCKASGYTFTEYNMDWVKQSHGKSLEWIGDINPNNGNTIYNQKFKGKATLTVDKSSTTAYLELRSLTSEDTAVYFCARDHDYYFDFWGQGTTLTVSS
VL: DIQMTQTPASQSASLGESVTITCLASQTIDTWLAWYQQKPGKSPQLLIYAATSLADGVPSRFSGSGSGTKFSFKISSLQAEDFVSYYCQQPYSSPYTFGGGTKLELKR
notes: Murine monoclonal antibody purified from ascites

From patent publication US20030143225A1 (Genentech, published 2003)
